Results reported in patent publication US20050204417A1 (WASHINGTON STATE UNIVERSITY RESEARCH FOUNDATION, published 2005).

B1: His-tagged AgGPPS2 truncated protein (SEQ ID NO:12) (enzyme)
chain: MFDFNKYMDSKAMTVNEALNKAIPLRYPQKIYESMRYSLLAGGKRVRPVLCIAACELVGGTEELAIPTACAIEMIHTMSLMHDDLPCIDNDDLRRGKPTNHKIFGEDTAVTAGNALHSYAFEHIAVSTSKTVGADRILRMVSELGRATGSEGVMGGQMVDIASEGDPSIDLQTLEWIHIHKTAMLLECSVVCGAIIGGASEIVIERARRYARCVGLLFQVVDDILDVTKSSDELGKTAGKDLISDKATYPKLMGLEKAKEFSDELLNRAKGELSCFDPVKAAPLLGLADYVAFRQNLEHHHHHH
notes: N-terminally truncated (leader removed) with C-terminal His6 tag, expressed in E. coli; homodimer by gel filtration
B2: His-tagged AgGPPS1 truncated protein (SEQ ID NO:16) (enzyme)
chain: MFDFKEYLHSKAISVNEALERAVPLRYPEKIHEAMRYSLLAGGKRIRPILTIAACELVGGSEELAMPTACAMEMIHTMSLIHDDLPSMDNDDLRRGKLTNHKVFGEGTAVLAGDALLSFAFEHIAVSTRKTVASHRVLRVVSELGKAIGSQGVAGGQVADITSEGDPSVGLETLEWIHIHKTAVLLECAVVSGAIIGGASENEIERTGRYARCVGLLFQVVDDILDVTRSSEELGKTAGKDLVSDKATYPKLMGLEKAKEFADELLDRAKEELSCFNPAKAAPLLGLADYIALRQNLEHHHHHH
notes: as for B1
B3: His-tagged AgGPPS3 truncated protein (SEQ ID NO:20) (enzyme)
chain: MFDFNKYMLSKAMAVTEALDKAIPHSYPQKIHESMRYSLLAGGKRVRPVLCIAACELVGGREELAMPTACAMEMIHTMSLIHDDLPCMDNDDLRRGKPTNHKVFGQDTALLAGDALHAFAFEHIVAFTSKSVGSDGILRAVTELARATGPQGIMGGQIVDIASERDAFVDLQTLEWIHIHKTAVLFECATVCGAIIGGASGDEIERIRRFARYLGLLFQVVDDILDVTKSSEDLGKTAGKDLVSDKATYPKLMGLEKAKGFSLELLNKAKEELSCFDPMKAAPLFGLADYMALRQNLEHHHHHH
notes: as for B1

Target: the molecule itself
Test: gel filtration on calibrated Superdex 200; self-association of the subunit
Procedure: Molecular weight determination and kinetic evaluation. The molecular weight of GPP synthase was determined by gel filtration chromatography on a calibrated XK 16/70 column of Superdex 200 (Amersham Biosciences) as previously described (C. Burke and R. Croteau, J. Biol. Chem. 277:3141-3149, 2002). For kinetic evaluation, the standard prenyltransferase assay was performed (C. Burke and R. Croteau, J. Biol. Chem. 277:3141-3149, 2002) but the reaction was terminated after 4 min. to ensure linearity in the rate measurements. For preparative incubations, the reaction time was extended to 8 min., and all assays contained from 0.25 to 1.0 μg of purified protein.

Binding result, binds:
B1
B2
B3
